Source: publication PMC7473855

Target: SARS-CoV-2 prefusion-stabilized spike ectodomain with a C-terminal T4 fibritin trimerization motif (SARS-CoV-2) (UniProt P0DTC2)
Experiment: cryo-EM structure

Chain of Ty1 nanobody (VHH) (VHH): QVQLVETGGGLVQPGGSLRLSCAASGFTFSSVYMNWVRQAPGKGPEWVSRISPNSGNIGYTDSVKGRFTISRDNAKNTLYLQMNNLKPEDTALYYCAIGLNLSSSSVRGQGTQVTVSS

How did the stoichiometry N (Ty1 per spike trimer) turn out when Ty1 nanobody (VHH) was run?
The stoichiometry N (Ty1 per spike trimer) was 3.
